Results reported in a protein production outcome set (Wang et al. 2014).

Assay: label from the status in PepcDB records
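Further: failed if final PepcDB status was selected cloned or expressed and not failed if soluble or beyond.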

| Sequence | protein production |
| --- | --- |
| MGSSHHHHHHSSGLVPRGSPQQLVERLQEEKRIEAQKRKERQEAHLYMQVQIVAEDQFCGHQGNDMYDEEKVKYTVFKVLKNSSLAEFVQSLSQTMGFPQDQIRLWPMQARSNGTKRPAMLDNEADGNKTMIELSDNENPWTIFLET | not failed |
| MGSSHHHHHHSSGRENLYFQGEPPPSVRREFPLKVRLSTGKDVRLSASLPDTVGQLKRQLHAQEGIEPSWQRWFFSGKLLTDRTRLQETKIQKDFVIQVIIN | not failed |
| MGSSHHHHHHSSGRENLYFQGMLLHSVQTPRGEILNVSEQEARDVFGASEQAIADARKATILQTLRIERDERLRACDWTQVQDVVLTADQKATWAKYRQALRDLPETVTDLSQIVWPQLPV | not failed |
| MGSSHHHHHHSSGRENLYFQGMNIGRLRDRITIQTLKQTRDITGEILETWEDGHTLWASVNMVSSKEAISSGAELAIGTVRIWIRYRKDINATSRIKVSTGPLAGRVLNIIGQPLPDAARTRLEILCREGAEK | not failed |
| MGSSHHHHHHSSGRENLYFQGSQESIQNKISQCKFSVCPERLQCPLEAIQCPITLEQPEKGIFVKNSDGSDVCTLFDAAAFSRLVGEGLPHPLTREPITASIIVKHEECIYDDTRGNFIIKGN | not failed |
| MGSSHHHHHHSSGRENLYFQGSQRPVDRNPPRINLMPTGANRVAMRNRGNNEADAALQALAQNGINMEDLRAALEAYIVWLRPIPLDIANALEGVGITPRFDNPEEAKVDNPLMNLSSALKRRLDA | not failed |
| MGSTQYWDLKSGVCTRIFGGHQGTITCMDLCKNRLVSGGRDCQVKVWDVDTGKCLKTFRHKDPILATRINDTYIVSSCERGLVKVWHIAMAQLVKTLSGHEGAVKCLFFDQWHLLSGSTDGLVMAWSMVGKYERCLMAFKHPKEVLDVSLLFLRVISACADGKIRIYNFFNGNCMKVIKANGRGDPVLSFFIQGNRMVVNTESNVLMFQFEHIKWQYAVEKTKQKKNKEKEEEKEENSLMEILSKCNIQVHSPRESVSSKQTVIQELLPGKPPKSRVLLKPAKFSSAVLIEELQSQGKSKSPRRDADDVEKAQKQGQLETPGKLPSHPKKKSWKIPMSPDQFLLTVSALQHARNSGEFAYPCRPQTEITDVWGPSISYPRKVLNFKGKSIQRAVDRLRLSNPPIDVKRTSIPLEIQKLQPNLKISLHSPRAQSTIPQPMIIRSRFSGSLKGGDQVTSSIERAVCSTGPLTSMQVIKPNRMLAPQVGTATLSLKKERPRIYTALDPFRVNAEFVLLTVKEEKEHQEAKMKEYQARESTGVVDPGKASKAAWIRKIKGLPIDNFTKQGKTAAPELGQNVFI | failed |
| MGSVQVKAHADEQGRAVVRASIEIAAPPSVVFGVILDCGRAARMSPGVKRCRVVSRAADGSEVREHTVKWGFFLPALQSRSRLSLQPDREIRFTCIGGDIRACDGFWRLEPLDGGMRTRVTYDLWATAPYAAPAGLVSSLMRRTVPQSLAALRRECEGLEHHHHHH | failed |
| MGTDKFNNIKIDKYENLINVLKTGDIFLCSGNYLVSKLIKKVSESMFSHTGIIVKWGEHTLIMESVEDDGVRIVPLEHYIKNYENSNNRYNGSLFIARHELLQNVNDDSEMIRNLIKVGFSLLNSGYDKNEIAQIVARIGLGIGRHEDNNEYICSEFVNECFKKIGVEFLTDSEGFIFPEHIAADHHVLPIAQIE | not failed |
| MGTEAEQPSPPAQQQDQENPPLCKAQNPKPARLYRFVLIFVAGSLAAWTFHALSSTNLVWKLRQLHHLPTAHYLQTRDEFALYSVEELNAFKEFYDKSVSDSVGASYTEAEQTNIKEALGALRMAQDLYLAGKDDKAARLFEHALALAPRHPEVLLRYGEFLEHNQRNIVLADQYYFQALTISPSNSEALANRQRTADVVQSLDERRLESLDSKRDALSAIHESNGALRRAKKEAYFQHIYHSVGIEGNTMTLAQTRSILETRMAVDGKSIDEHNEILGMDLAMKYINASLVQKIDITIKDILELHRRVLGHVDPIEGGEFRRNQVYVGGHIPPGPGDLALLMQRFERWLNSEHSSTLHPVNYAALAHYKLVHIHPFVDGNGRTSRLLMNTLLMRAGYPPVIIPKQQRSKYYHFLKLANEGDIRPFVRFIADCTEKTLDLYLWATSDLPQQIPMLIQTESEAGERLAQMQSPNVAQRSSILEFYESGSGDLP | failed |
| MGTNKQTALLPTVNQAITDGAVFGVSYSLLGPQENALHVIGYQGAGDDRLPLLPQARYDLASLTKVVGTTTRLLQLLIAGKLELTQPIGSLVSGLRYPQLTIEQLMLHRSGLPADVPDAHALDQAGLVHAVKTMAAVAAPDTETIYSDLNYIILGWAIAALDGDLATSLTQHIFAPLGMHATGYRPQHVAAADFVPTENVPARGGIIRGTVHDHKAFLLDGVSGHAGLFATLADLTIFTRLLAGLPVTNGDHVLPPAAFVLLDRFCKGGRTLGWRCWAQGRHQYWHTGFTGTSIAFDRDTQCGFVCLTNRIYPSRANRAWLAVRRQLLTQFFEVATSWPD | failed |
| MGTQRSDTRDQSARLMRRATYASVTVAMTLVVAKLVAWVLTDSVALLSTLIDSLIDVGASLVTLLAVREALTPADEEHRFGHGKAEPLAGLGQAAFIAGSGIFLVIEAAGRLTAPLPVQRGEIGIAVMVFSILATIGLVAYQRRVIAQTKSVAISADSLHYAGDLLINLSVIVSLGLAMTVDLPILDPLFAIAIALWLMKNAWTIGANSVNLLMDRELPPEDRVRIIKLALENPRVFDIHDLRTRSSGPQTFIQLNVELDGEMTLSASHAIVTEIENRLRAAFPGAEVLIHQDPAGIQEDHHPDFAYEDTSALLEADAASQPRRL | failed |
| MGTRRRRGRKAIAGLPGYLLLLVLVLVWLFQELRPGPVPPAETGEAEVYFMPEEGPRAKARLLALMDGARESLEGAFYEFRDLEVAQGLLRAKARGVRVRLYGESDYREDFRRYLVAASLGQREEPPRVRFAELKERVKPLSLDCEEVVGIPICYDEREGFMHHKFLVVDGRAVWTGSTNMTWNAFARNNENSLLLPSPTLAQGYAREFEALFGGQKEGLGQPVAFALEGVEGVAYFSPRGGRLAREALLKRLSEAQREVLVAAFVLTDREVLEALLQARRRGAEVKVLLETRNLGTSREEALLEEGLEVRQDANPYTMHHKVMLLDGTYVVTGSYNFSVRAHEVNNENLLVLKSPSLAERYRKEVLRLWEAGSPL | failed |
| MGTRWFAKNTTMSKNSIVIGVDLDGVCADFYGRMRQIASEWFERPIDELPEEVSWGLSEWGITNPSQYDSLHRFAVTQRELFSSMEAIPGARKYLRQLSDEGFRIRIITHRLFIHYFHATAVQQTVNWLDSHGIPYWDLCFVKEKTQVGADIYIEDSPENVAQLRGRGLFTICFGNSTNRHIEELRAASWQDVYDMIKAFVT | failed |
| MGTYRKRFNEKARSGHMAKLKELKRIRNKQFTRQDENDERVENPDSAPAESSTTEPNANAEILEPLTEEEKKMKKRKLQELFTPKESKVSRLKKKRLDKFIEHQLKREERKTIIGKLQDYKIDTSLLTSSKRLGEGRQTKKEEFKEALSLERQGRGNEQTNEILYEEYEPKVWDEYGEGGSSEDDDGEDDFEASFGSMPKPTDNEEKKSSGFIDHRPAKFGGSGLSFGFSNIKVINKESKTPKKKYNWRQRVEMEELKKHGKEDEMDFDTTSEDDDEEEDQEEEDKMHPSENPLEEVESADSETGSEKFDQNDVANEFKDWANQEIKKLEGRDQELVTPTLNIDYKPIIRKEDLDDGLQEAYVPINENSTRKAFYVEVSRSDEIQKARIQLPVFGEEHKIMEAIHHNDVVIICGETGSGKTTQVPQFLYEAGFGAEDSPDYPGMVGITQPRRVAAVSMAERVANELGDHGHKVGYQIRFDSTAKEDTKVKFMTDGVLLREMMHDFKLTKYSSIIIDEAHERNINTDILIGMLSRCVRLRAKLHKENPIEHKKLKLIIMSATLRVSDFSENKTLFPIAPPVLQVDARQFPVSIHFNRRTAFNYTDEAFRKTCKIHQKLPPGAILVFLTGQQEITHMVKRLRKEFPFKKNSKYNKDLETPVSKMGINSKTTDLEAEDIDFSVQVIDQDKFKSAIRYEEDEGNSGNGEDEEDEEEEGFEEVLTEGQTANDPLYVLPLYSLLPTKEQMRVFQKPPQGSRLCIVATNVAETSLTIPGVRYVVDSGRSKERKYNESNGVQSFEVGWVSKASANQRSGRAGRTGPGHCYRLYSSAVFEHDFEQFSKPEILRMPVESIVLQMKSMAIHNIINFPFPTPPDRVALSKAIQLLQYLGALDNKEMITEDGKKMSLFPLSPRFSKMLLVSDEKACLPYIVAIVSALSVGDPFINEFELGINEISRKPNPDENLDDKIREHDESTPGMDPELKKELRSKFYKSRSQFSKLDKFSDVFRLLSVVSAMDYVPKEQKEIFMKKNFLRGKLMEEIVKLRKQLMYIIKSNTSKENIAVVIRNEDLKSDIPSVIQIKLLKQMICAGFVDHVAVRADVLFPDDAKITNRTSIINIPYIPVLATRTPNIEDCFVYIHPTSILNNLGEMPPKYMLYYSLHLGGNNKTRMNTLCDIASTPLANIARKGLLLTYSKPLTGQGLKTVNLSPTERYCYVVPRFGSTVDNDLKIGWDLNPIAVHQKKQKGQWTVIKFITRKGFQTITGEEKEKK | failed |
| MGVALLLLVGGAELLVRSALRLAQRLHVRPLIIGLSLVAFGSTAPQLTVSLQAAYQGAPDVAVGSVIGSNIFNVLVILGLAALIIPLRVSRQLVRLDIPLMILASGLVYALSANAHLGRVEGALLLLGLAGYLAMLWHQSRHYARTYPAPDAARSGAGRFWSGTLLQILVGLGLLSLAGHLLLEAAIEVATDLGLSERIIGLTVVAICTSLPELAAALIAALRGEREIAVGTVIGSNLFNLLAVLGLTALITPEPLSISPNALSFDLPVMLGVAALSLPVFYSGYRITRAEGLVFLCLYLAYGLHVAAFTMGMPLAGRLERLMLFYVLPVLATVLLYTTVRAWRRQH | failed |
| MGVKFTLMGTTAGLGVPAFHCNCIACREARADPFWARTRSGAVLETGKENILIDASPDLSKQLLRERIQSVDYLFVTHWHYDHFGGIGDLEYYVKLERKWPVALFLPPSAVDDFAKVYPFLEEVFVIEPWEFGKSYAFEGIELTVLPARHSIETGGILLAGSKRAAYFTDTAGLPAPTARQLQGVDTLICDATFNGANWFPHSHMNWQEAIALGESIRAQHTVLTHLAMHYSTPITAAQLQEKLKDYAQVSLAYDGMVLTI | failed |
| MGVLRVGLCPGLTEEMIQLLRSHRIKTVVDLVSADLEEVAQKCGLSYKALVALRRVLLAQFSAFPVNGADLYEELKTSTAILSTGIGSLDKLLDAGLYTGEVTEIVGGPGSGKTQVCLCMAANVAHGLQQNVLYVDSNGGLTASRLLQLLQAKTQDEEEQAEALRRIQVVHAFDIFQMLDVLQELRGTVAQQVTGSSGTVKVVVVDSVTAVVSPLLGGQQREGLALMMQLARELKTLARDLGMAVVVTNHITRDRDSGRLKPALGRSWSFVPSTRILLDTIEGAGASGGRRMACLAKSSRQPTGFQEMVDIGTWGTSEQSATLQGDQT | failed |
| MGVPEINEYGQQVNDLVPGWQGAQVLRRTALNGRFCRLEPLDVDRHAADLFAAYALGDNSDWTWLASTRPESVTATAHWIAGKVNDDVLVPYAVVDLRSEQAVGIVSYMAIEREMGTVEIGHVTWSRRMKNTPLGTEAVWLLLKNGFDHGYRRLEWKCDSMNVASRRAAERLGFSWEGRLRQRLVRKGRTRDSDMLSIIDGEWPARDAALRAWLAAENFTADGQQIKRLEAFR | failed |
| MGVSFKISKVGRKFRPKISTELATPDSPKAIVLSGKPKATDDSNIGDVSGFSKPSLPDISPDHEVSFILSLYPNGYSIGKTSEAMQQISFRDVPKVLHPYDRAAEGLLSAIEAGRLPGDILEDIPCKFVDGVVICEVHDYRKHTSSQVSPVINKLRLKMSLENVVKDIPSMSDNSWTYGDLMVIMVARGL | failed |
| MGVTLAKGGNVSLSKAAPNLTQVLVGLGWDARSTTGAPFDLDASALVCSSGRVLGDEWFVFYNQLKSPDGSIEHTGDNLTGEGDGDDESLLVDLSKVPAHCDKIVFPVSIHMADERGQTFGQVSNAFIRVVNQADGQELARYDLSEDASTETAMIFGELYRYQGEWKFRAVGQGYASGLRGIALDFGVNVS | not failed |
| MGVTLEGQRKESIWVLMRRQRARRALVKKIMIRPRKSVEASRRPCRAIHRRVKTLKELVPNTKTSEGLDGLFRQTADYILALEMKVKVMQTMVQVLTETNCV | failed |
